Several values for one entry are separate records, joined by “and”; a condition that tells them apart may be missing. Identical values can stand only once.

Substrate in data set [1]: NCCCC(=O)O
The data set is described as follows: cells, lysate or membranes. The note with it: other: various concentrations of [3H]GABA, 30 seconds; pH 7.4; 37.0 °C.

Substrate in data set [2]: NCCS(=O)(=O)O
Kind of data set: cells, lysate or membranes. The following applies: other: various concentrations of [3H]taurine, 30 seconds, pH 7.4.

B1: GAT-2 (Rattus norvegicus) (protein)
chain: MDNRVSGTTSNGETKPVCPVMEKVEEDGTLEREQWTNKMEFVLSVAGEIIGLGNVWRFPYLCYKNGGGAFFIPYLIFLFTCGIPVFFLETALGQYTNQGGITAWRKICPIFEGIGYASQMIVSLLNVYYIVVLAWALFYLFSSFTTDLPWGSCSHEWNTENCVEFQKTNNSLNVTSENATSPVIEFWERRVLKISDGIQHLGSLRWELVLCLLLAWIICYFCIWKGVKSTGKVVYFTATFPYLMLVVLLIRGVTLPGAAQGIQFYLYPNITRLWDPQVWMDAGTQIFFSFAICLGCLTALGSYNKYHNNCYRDCVALCILNSSTSFVAGFAIFSILGFMSQEQGVPISEVAESGPGLAFIAYPRAVVMLPFSPLWACCFFFMVVLLGLDSQFVCVESLVTALVDMYPRVFRKKNRREILILIVSVVSFFIGLIMLTEGGMYVFQLFDYYAASGMCLLFVAIFESLCVAWVYGASRFYDNIEDMIGYKPWPLIKYCWLFFTPAVCLATFLFSLIKYTPLTYNKKYTYPWWGDALGWLLALSSMVCIPAWSIYKLRTLKGPLRERLRQLVCPAEDLPQKSQPELTSPATPMTSLLRLTELESNC
What is called Km is the concentration of substrate that gives half-maximal velocity. With B1, in data set [1], the Michaelis constant (Km) was 4 µM and 8 ± 3 µM.

B2: taurine transporter (rB16a) (Rattus norvegicus) (protein)
chain: MATKEKLQCLKDFHKDILKPSPGKSPGTRPEDEADGKPPQREKWSSKIDFVLSVAGGFVGLGNVWRFPYLCYKNGGGAFLIPYFIFLFGSGLPVFFLEVIIGQYTSEGGITCWEKICPLFSGIGYASIVIVSLLNVYYIVILAWATYYLFQSFQKDLPWAHCNHSWNTPQCMEDTLRRNESHWVSLSAANFTSPVIEFWERNVLSLSSGIDHPGSLKWDLALCLLLVWLVCFFCIWKGVRSTGKVVYFTATFPFAMLLVLLVRGLTLPGAGEGIKFYLYPNISRLEDPQVWIDAGTQIFFSYAICLGAMTSLGSYNKYKYNSYRDCMLLGCLNSGTSFVSGFAIFSILGFMAQEQGVDIADVAESGPGLAFIAYPKAVTMMPLPTFWSILFFIMLLLLGLDSQFVEVEGQITSLVDLYPSFLRKGYRREIFIAIVCSISYLLGLTMVTEGGMYVFQLFDYYAASGVCLLWVAFFECFVIAWIYGGDNLYDGIEDMIGYRPGPWMKYSWAVITPALCVGCFIFSLVKYVPLTYNKVYRYPDWAIGLGWGLALSSMVCIPLVIVILLCRTEGPLRVRIKYLITPREPNRWAVEREGATPFHSRATLMNGALMKPSHVIVETMM
As to B2, the Michaelis-Menten constant (Km) in data set [2] was 43 ± 6 µM.
